T1: ITB3763-778 (Homo sapiens (Human), UniProt P05106)
T1 chain: AKWDTANNPLYKEATS

T2: MAP1A1836-1851 (Homo sapiens (Human), UniProt P78559)
T2 chain: PSWLADIPPWVPKDRP


Legend:
ITB3763-778 = molecular target: T1, ITB3763-778; experiment: FP competition
MAP1A1836-1851 = molecular target: T2, MAP1A1836-1851; experiment: FP competition

Kd (ITB3763-778) [µM]	Kd (MAP1A1836-1851) [µM]	Binder
500	–	TLN1 PTB (protein) GVSFFLVKEKMKGKNKLVPRLLGITKECVMRVDEKTKEVIQEWNLTNIKRWAASPKSFTLDFGDYQDGYYSVQTTEGEQIAQLIAGYIDIILK
–	355	SFN 14-3-3 (protein) MERASLIQKAKLAEQAERYEDMAAFMKGAVEKGEELSCEERNLLSVAYKNVVGGQRAAWRVLSSIEQKSNEEGSEEKGPEVREYREKVETELQGVCDTVLGLLDSHLIKEAGDAESRVFYLKMKGDYYRYLAEVATGDDKKRIIDSARSAYQEAMDISKKEMPPTNPIRLGLALNFSVFHYEIANSPEEAISLAKTTFDEAMADLHTLSEDSYKDSTLIMQLLRDNLTLWTADNAGEEGGEAPQEPQS

Source: paper PMC8769072 (2022)
